PMC3994049, “Molecular Characterization and Expression of a Novel Alcohol Oxidase from Aspergillus terreus MTCC6324” (PLoS ONE, 2014)

Legend:
[1] = biological target: T1, rAOx (recombinant alcohol oxidase, A. terreus MTCC6324) (Aspergillus terreus, UniProt I7FDJ2); test: FAD fluorescence quenching (ex […] nm, em […] nm) after reconstitution of apoenzyme; type: binding; settings: refolding of apo-rAOx with 0.08 mM FAD, pH 9.0, 16 °C, ~80 h
T1 construct: gene AOx; full-length ORF 2001 bp, 666 residues; pET28a(+), N- and C-terminal His6 kept; ~74-76 kDa; highly aggregated (~1000 nm)
T1 sequence (I7FDJ2 1-666): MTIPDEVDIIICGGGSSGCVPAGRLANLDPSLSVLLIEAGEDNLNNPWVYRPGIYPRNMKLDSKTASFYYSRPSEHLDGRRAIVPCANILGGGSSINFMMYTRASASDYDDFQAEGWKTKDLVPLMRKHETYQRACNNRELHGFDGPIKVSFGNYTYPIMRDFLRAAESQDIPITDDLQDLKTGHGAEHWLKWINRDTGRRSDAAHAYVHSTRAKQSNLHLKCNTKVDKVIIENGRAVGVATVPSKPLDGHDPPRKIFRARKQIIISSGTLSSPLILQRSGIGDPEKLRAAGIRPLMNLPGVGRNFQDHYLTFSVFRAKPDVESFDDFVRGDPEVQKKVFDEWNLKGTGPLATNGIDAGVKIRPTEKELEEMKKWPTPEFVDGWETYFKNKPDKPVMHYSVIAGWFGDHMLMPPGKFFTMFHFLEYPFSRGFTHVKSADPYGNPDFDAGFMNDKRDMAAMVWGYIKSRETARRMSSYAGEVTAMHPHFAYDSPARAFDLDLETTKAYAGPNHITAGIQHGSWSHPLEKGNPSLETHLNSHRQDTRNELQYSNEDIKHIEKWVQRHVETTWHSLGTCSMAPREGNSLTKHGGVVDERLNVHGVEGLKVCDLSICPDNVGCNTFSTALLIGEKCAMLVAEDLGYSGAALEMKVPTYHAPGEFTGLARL

[2] = tested on: COc1cccc(CO)c1; test: purified protein; settings: apparent, FAD-reconstituted enzyme, 0.1 M sodium phosphate pH 6.0
[3] = substrate: COc1ccc(CO)cc1OC; test: purified protein; type: biochemical, Aspergillus terreus; settings: apparent, FAD-reconstituted enzyme, 0.1 M sodium phosphate pH 6.0
[4] = substrate: OCc1ccccc1; test: purified protein; type: biochemical, Aspergillus terreus; settings: apparent, FAD-reconstituted enzyme, 0.1 M sodium phosphate pH 6.0

Cc1cc2nc3c(=O)[nH]c(=O)nc-3n(C[C@H](O)[C@H](O)[C@H](O)COP(=O)(O)OP(=O)(O)OC[C@H]3O[C@@H](n4cnc5c(N)ncnc54)[C@H](O)[C@@H]3O)c2cc1C [FAD]
FAD fluorescence quenching (ex 443 nm, em 527 nm) after reconstitution of apoenz [1]: lower fluorescence intensity of the holoenzyme relative to that of free FAD inferred efficient incorporation

rAOx (recombinant alcohol oxidase, A. terreus MTCC6324) (Aspergillus terreus)
Km [2]: 2.88 mM | kcat [2]: 106 s⁻¹ | kcat/Km [2]: 36700 M⁻¹ s⁻¹

B1: rAOx (recombinant alcohol oxidase, A. terreus MTCC6324) (Aspergillus terreus) (protein)
chain: MTIPDEVDIIICGGGSSGCVPAGRLANLDPSLSVLLIEAGEDNLNNPWVYRPGIYPRNMKLDSKTASFYYSRPSEHLDGRRAIVPCANILGGGSSINFMMYTRASASDYDDFQAEGWKTKDLVPLMRKHETYQRACNNRELHGFDGPIKVSFGNYTYPIMRDFLRAAESQDIPITDDLQDLKTGHGAEHWLKWINRDTGRRSDAAHAYVHSTRAKQSNLHLKCNTKVDKVIIENGRAVGVATVPSKPLDGHDPPRKIFRARKQIIISSGTLSSPLILQRSGIGDPEKLRAAGIRPLMNLPGVGRNFQDHYLTFSVFRAKPDVESFDDFVRGDPEVQKKVFDEWNLKGTGPLATNGIDAGVKIRPTEKELEEMKKWPTPEFVDGWETYFKNKPDKPVMHYSVIAGWFGDHMLMPPGKFFTMFHFLEYPFSRGFTHVKSADPYGNPDFDAGFMNDKRDMAAMVWGYIKSRETARRMSSYAGEVTAMHPHFAYDSPARAFDLDLETTKAYAGPNHITAGIQHGSWSHPLEKGNPSLETHLNSHRQDTRNELQYSNEDIKHIEKWVQRHVETTWHSLGTCSMAPREGNSLTKHGGVVDERLNVHGVEGLKVCDLSICPDNVGCNTFSTALLIGEKCAMLVAEDLGYSGAALEMKVPTYHAPGEFTGLARL
notes: full-length ORF 2001 bp, 666 residues; pET28a(+), N- and C-terminal His6 kept; ~74-76 kDa; highly aggregated (~1000 nm)
Km [3]: 4.91 mM | kcat [3]: 115 s⁻¹ | kcat/Km [3]: 23500 M⁻¹ s⁻¹ | Km [4]: 10.80 mM | kcat [4]: 2.16 s⁻¹ | kcat/Km [4]: 200 M⁻¹ s⁻¹
